The target of series [1] is T1, NGF (nerve growth factor) (human, UniProt P01138 P01138:122-241). Nature of the series: cell_activity; neurite outgrowth, NGF 1.1 nM. As to conditions: tags: human NGF; chain copies: 2. Here is the method:
(§1) The neurite outgrowth inhibitory activity of the aptamer obtained in Example 1 was evaluated by using Neuroscreen-1 cell, which is a subclone of PC-12 cells.
(§2) The cells (2500 cells per well) were cultured for one day in an RPMI-1640 medium containing 2.5% horse serum and 1.25% fetal bovine serum in a 96 well flat-bottom plate coated with collagen type IV. […] Two days later, the cytoplasm and nuclei were stained using Cellomics Neurite Outgrowth Kit (manufactured by Thermo Scientific), and neurite length per cell was measured by Cellomics ArrayScan VTI (manufactured by Thermo Scientific). With the neurite length per cell obtained by the addition of NGF alone as inhibitory activity 0%, and that of the cell obtained by NGF free culture for 2 days as inhibitory activity 100%, the inhibitory activity of the aptamer was calculated from the neurite length per cell obtained by culturing with the addition of NGF and the aptamer in mixture. When the inhibitory activity was 0% or below, ‘0%’ is indicated.

Series [2] concerns the target T1, NGF (nerve growth factor). Nature of the series: cell_activity; neurite outgrowth, NGF 0.38 nM; SPR binding; blocks NGF-TrkA and NGF-p75; TF-1 IC50 0.07 nM. The settings on record: tags: amine-coupled to CM5 chip in SPR; soluble in cell assays; chain copies: 2.
Series [3] addresses T2, NT-3 (human, UniProt P20783 P20783:139-257).
T2 sequence: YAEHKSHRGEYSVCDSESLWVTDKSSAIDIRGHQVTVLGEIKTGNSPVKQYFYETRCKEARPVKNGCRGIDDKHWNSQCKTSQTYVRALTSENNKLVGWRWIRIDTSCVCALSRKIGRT
Put plainly: SPR; binding to NT-3 not observed; TF-1 IC50 >1000 nM. As to conditions: tags: R&D Systems; chain copies: 2. For orientation: In SPR one partner is held on a chip, and binding of the other changes the refractive index at the surface.

Series [4] concerns the target T1, NGF (nerve growth factor). Nature of the series: cell_activity; neurite outgrowth, NGF 0.38 nM; SPR binding; TF-1 IC50 >0.3 nM. As to conditions: tags: amine-coupled to CM5 chip in SPR; soluble in cell assays; chain copies: 2. The protocol:
as §1, §2

For series [5], the target named is T1, NGF (nerve growth factor). Put plainly: cell_activity; neurite outgrowth, NGF 0.38 nM; TF-1 IC50 0.075 nM. The settings on record: tags: human NGF; chain copies: 2. The protocol: as §1, §2
Series [6] has as its target T1, NGF (nerve growth factor). Put plainly: cell_activity; neurite outgrowth, NGF 0.38 nM; not tested by SPR; TF-1 IC50 <0.1 nM. The settings on record: tags:; soluble in cell assays; chain copies: 2. The protocol: as §1, §2
The target of series [7] is T1, NGF (nerve growth factor). Put plainly: cell_activity; neurite outgrowth, NGF 0.38 nM; SPR binding; TF-1 IC50 0.078 nM. The settings on record: tags: amine-coupled to CM5 chip in SPR; soluble in cell assays; chain copies: 2. Here is the method:
as §1, §2

Series [8] has as its target T1, NGF (nerve growth factor). Put plainly: cell_activity; neurite outgrowth, NGF 0.38 nM; TF-1 IC50 0.348 nM. As to conditions: tags: human NGF; chain copies: 2. The protocol: as §1, §2
The target in series [9] is T1, NGF (nerve growth factor). Put plainly: cell_activity; neurite outgrowth, NGF 0.38 nM; TF-1 IC50 0.065 nM. The settings on record: tags: human NGF; chain copies: 2. Here is the method:
as §1, §2

For series [10], the target named is T1, NGF (nerve growth factor). Put plainly: cell_activity; neurite outgrowth, NGF 1.1 nM; SPR binding; TF-1 IC50 4.3 nM. The settings on record: tags: amine-coupled to CM5 chip in SPR; soluble in cell assays; chain copies: 2.
Series [11] has as its target T1, NGF (nerve growth factor). Put plainly: cell_activity; neurite outgrowth, NGF 1.1 nM; SPR binding; TF-1 IC50 >10 nM. As to conditions: tags: amine-coupled to CM5 chip in SPR; soluble in cell assays; chain copies: 2. The protocol: as §1, §2
Series [12] addresses T1, NGF (nerve growth factor). Nature of the series: cell_activity; neurite outgrowth, NGF 1.1 nM; SPR binding; TF-1 IC50 2.4 nM. As to conditions: tags: amine-coupled to CM5 chip in SPR; soluble in cell assays; chain copies: 2. Here is the method:
as §1, §2

Here are results for 15 molecules from patent US20130052176, “APTAMER FOR NGF AND USE THEREOF” (SHIONOGI & CO., LTD, published 2013).

T1 sequence (P01138 122-241, one chain of several): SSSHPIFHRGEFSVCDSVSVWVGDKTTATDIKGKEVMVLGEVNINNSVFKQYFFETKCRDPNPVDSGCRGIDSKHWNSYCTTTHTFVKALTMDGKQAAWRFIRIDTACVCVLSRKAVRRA

B1: aptamer ID 48 (ssRNA)
RNA: GGGAGAACUUCGACCAGAGUCGAUAACGAACAAAACUCCCAAAUAUGUGCGCAUAC
modifications: 2'-F all pyrimidines
For orientation: IC50 means the midpoint of a concentration-inhibition curve. In series [1], B1 came in with an IC50 of 1.8 nM.

B2: aptamer ID 26(2) (ssRNA)
RNA: GGGAGACUCGCCAGAGUUGAAAGAAACCCAAAUAAGUGUGCGCAC
modifications: 2'-F pyrimidines; 2'-OMe purines except 2'-OH at 3,5,19-22,24,26; 5' idT and 3' idT
Take B2: the half-maximal inhibitory concentration (IC50) in [2] stood at 0.06 nM. Moreover, the binding result in series [3] is recorded as “no binding”.

B3: aptamer ID 26(36) (ssRNA)
RNA: GGGAGACUCGCCAGAGUUGAAAGAAACCCAAAUAAGUGUGCGCAC
modifications: 2'-F pyrimidines except 2'-OMe at 7; 2'-OMe purines except 2'-OH at 3,19,20,26; PS between 3 and 4; 5' idT and 3' idT
In series [4], B3 gave a 50% inhibitory concentration (IC50) of 0.211 nM.

B4: aptamer ID 26(55) (mixed)
RNA: GGGAGACUCGCCAGAGUUGAAAGAAACCCAAAUAAGUGUGCGCAC
modifications: 5' and 3' idT; 2'-OMe purines except ribo g3,g19,a20,a26; 2'-F c27,c28,c41,c43; dC29,dT39; other pyrimidines 2'-OMe
On to B4, for which half-maximal inhibition in series [5] (IC50) required 0.087 nM.

B5: aptamer ID 26(72) (mixed)
RNA: GGGAGACUCGCCAGAGUUGAAAGAAACCCAAAUAAGUGUGCGCAC
modifications: 5' PEG80TS4 via C6 amino linker (Tb); 3' idT; 2'-OMe purines except ribo g3,g19,a20,a26; 2'-F c28,c41,c43; dC27,dC29; other pyrimidines 2'-OMe
Regarding B5, the IC50 in series [5] was found to be 0.219 nM.

B6: aptamer ID 26(17) (ssRNA)
RNA: GGGAGACUCGCCAGAGUUGAAAGAAACCCAAAUAAGUGUGCGCAC
modifications: 2'-F pyrimidines; 2'-OMe purines except 2'-OH at 3,5,19-22,24,26; 5' idT; 3' PEG40GS2 (amino C-6 linker)
Regarding B6, the IC50 in series [6] is less than 0.1 nM.

B7: aptamer ID 26(53) (mixed)
RNA: GGGAGACUCGCCAGAGUUGAAAGAAACCCAAAUAAGUGUGCGCAC
modifications: 2'-F pyrimidines except 2'-OMe at 7,8,9,11,12,17,18,33,37,45; 2'-OMe purines except 2'-OH at 3,19,20 and dA at 26; 5' idT and 3' idT
With B7, the concentration for half-maximal inhibition (IC50) in series [7] stood at 0.128 nM.

B8: aptamer ID 26(69) (ssRNA)
RNA: GGGAGACUCGCCAGAGUUGAAAGAAACCCAAAUAAGUGUGCGCAC
modifications: 5' PEG40TS4 via ssH linker; 3' idT; 2'-F all pyrimidines; 2'-OMe purines except ribo g3,g19,a20,a26
As for B8, the half-maximal inhibitory concentration (IC50) in series [8] was determined as 0.157 nM.

B9: aptamer ID 26(71) (ssRNA)
RNA: GGGAGACUCGCCAGAGUUGAAAGAAACCCAAAUAAGUGUGCGCAC
modifications: 5' PEG80TS4 via C6 amino linker (Tb); 3' idT; 2'-OMe purines except ribo g3,g19,a20,a26; 2'-F c27,c28,c29,c41,c43; other pyrimidines 2'-OMe
Consider B9, for which, in series [9], the IC50 came to 0.279 nM.

B10: aptamer ID 26(54) (mixed)
RNA: GGGAGACUCGCCAGAGUUGAAAGAAACCCAAAUAAGUGUGCGCAC
modifications: 5' and 3' idT; 2'-OMe purines except ribo g3,g19,a20,a26; 2'-F c28,u39,c41,c43; dC27,dC29; other pyrimidines 2'-OMe
On to B10, for which the 50% inhibitory concentration (IC50) in series [9] is 0.097 nM.

B11: aptamer ID 26(68) (ssRNA)
RNA: GGGAGACUCGCCAGAGUUGAAAGAAACCCAAAUAAGUGUGCGCAC
modifications: 5' PEG80TS2 via ssH linker; 3' idT; 2'-F all pyrimidines; 2'-OMe purines except ribo g3,g19,a20,a26
Take B11: in series [8], half-maximal inhibition (IC50) required 0.128 nM.

B12: aptamer ID 26(16) (ssRNA)
RNA: GGGAGACUCGCCAGAGUUGAAAGAAACCCAAAUAAGUGUGCGCAC
modifications: 2'-F pyrimidines; 2'-OMe purines except 2'-OH at 3,5,19-22,24,26; 5' PEG40GS2 (ssH linker); 3' idT
Take B12: the half-maximal inhibitory concentration (IC50) in [6] was less than 0.1 nM.
GGGAGACUCGCCAGAGUUGAAAGAAACCCAAAUAAGUGUGCGCAC (ssRNA, 2'-F pyrimidines; 2'-OMe at 6,10,13-16; other purines 2'-OH) [aptamer ID 26(3)] came in with an IC50 in [10] of less than 1 nM.
Consider GGGAGACUCGCCAGAGUUGAAAGAAACCCAAAUAAGUGUGCGCAC (ssRNA, 2'-F pyrimidines; 2'-OMe at 22; other purines 2'-OH) [aptamer ID 26(8)], for which the IC50 in series [11] was less than 1 nM.
The molecule GGGAGACUCGCCAGAGUUGAAAGAAACCCAAAUAAGUGUGCGCAC (ssRNA, 2'-F pyrimidines; 2'-OMe at 21; other purines 2'-OH) [aptamer ID 26(7)] returned an IC50 in series [12] of less than 1 nM.
